Experimental data as given in PMC12406685, “Thiazole substitution of a labile amide bond—a new option toward antiplasmodial pantothenamide-mimics” (Antimicrobial Agents and Chemotherapy, 2025).

Assays:
Settings in all cases: other: compound as substrate of HsPanK3; mean ± SEM; 2c and 2e fitted with substrate inhibition equation 1
[1] = substrate: CC(C)(CO)[C@@H](O)C(=O)NCc1cnc(-c2ccccc2)s1; test: HsPanK kinetic assay (pyruvate kinase/lactic dehydrogenase coupled, NADH at 340 nm); assay type: biochemical, human
Procedure: (§1) The gene encoding the catalytic core domain of human PanK3 (amino acid residues 12–368) was synthesized and cloned into the pET28a(+) expression vector using the NdeI and BamHI restriction sites to produce an N-terminal His6-tagged protein (Bio Basic Inc.). The plasmid was transformed into E. coli BL21(DE3) cells, which were cultured in Terrific Broth (TB) medium containing 50 µg/mL kanamycin at 37°C. When the culture reached an optical density at 600 nm (OD600) of 0.6, protein expression was induced by adding 1.0 mM isopropyl β-D-thiogalactoside (IPTG), followed by incubation at 18°C for 17–18 h. The cells were then harvested and resuspended in lysis buffer (20 mM Tris-HCl, pH 7.5, 500 mM NaCl, 5 mM imidazole, 5% [vol/vol] glycerol) supplemented with 1 mM PMSF (phenylmethylsulfonyl fluoride) and lysozyme (5 mg/g of the cell pellet). The suspension was then sonicated on ice, and the resulting lysate was centrifuged twice at 54,000 × g for 30 min at 4°C.
(§2) The clarified supernatant was incubated with Ni-NTA resin (Cytiva) pre-equilibrated with lysis buffer containing 5 mM imidazole at 4°C. After binding, the resin was washed with lysis buffer containing 30 mM imidazole, then eluted with lysis buffer containing 250 mM imidazole. The eluted HsPanK3 protein was dialyzed against storage buffer (20 mM Tris-HCl, pH 7.5, 200 mM NaCl, 5% [vol/vol] glycerol) and concentrated. The purified protein was stored at −80°C. Protein purity was assessed using SDS-PAGE and deemed >50% (Fig. S4).
(§3) The enzyme assay was adapted from a previously described method ([103]), which links the production of ADP to the consumption of NADH through the enzymatic activities of pyruvate kinase and lactic dehydrogenase. Reactions were conducted in 96-well microtiter plates, and the decrease in NADH concentration was measured at 340 nm at 30 s intervals after incubation at 30°C. Each reaction mixture (200 µL) contained the desired compound (substrate) at variable concentrations (0–2,000 µM), ATP (1.5 mM), NADH (0.3 mM), phospho(enol)pyruvate (2.0 mM), MgCl2 (10 mM), KCl (20 mM), a commercial pyruvate kinase/lactic dehydrogenase mixture (12 units, Sigma-Aldrich), and pantothenate kinase (0.48 µM) in 50 mM Tris–HCl buffer (pH 7.6). The reaction was initiated with the addition of ATP. The kinetic parameters were determined by fitting the rate data into the Michaelis–Menten equation using GraphPad Prism 8.0 with nonlinear regressions. Data were collected from three independent experiments, each performed in triplicate to verify the trends and optimize the selected concentrations. The kinetic parameters were calculated from the most complete triplicate set of data, and errors represent SEM.

[2] = substrate: CC(C)(CO)[C@@H](O)C(=O)NCc1csc(-c2ccccc2)n1; test: as above; assay type: biochemical, human
Procedure: as §1, §2, §3

[3] = substrate: CC(C)(CO)[C@@H](O)C(=O)NCc1csc(Cc2ccccc2)n1; test: as above; assay type: biochemical, human
Procedure: as §1, §2, §3

[4] = substrate: CC(C)(CO)[C@@H](O)C(=O)NCc1nc(CCc2ccccc2)cs1; test: as above; assay type: biochemical, human
Procedure: as §1, §2, §3

[5] = substrate: CCCCCc1csc(CNC(=O)[C@H](O)C(C)(C)CO)n1; test: as above; assay type: biochemical, human
Procedure: as §1, §2, §3

[6] = substrate: CCCCc1csc(CNC(=O)[C@H](O)C(C)(C)CO)n1; test: as above; assay type: biochemical, human
Procedure: as §1, §2, §3

[7] = substrate: CC(C)(CO)[C@@H](O)C(=O)NCCC(=O)O; test: purified protein, by the assay type

B1: HsPanK3 (Homo sapiens) (protein)
chain: PWFGMDIGGTLVKLSYFEPIDITAEEEQEEVESLKSIRKYLTSNVAYGSTGIRDVHLELKDLTLFGRRGNLHFIRFPTQDLPTFIQMGRDKNFSTLQTVLCATGGGAYKFEKDFRTIGNLHLHKLDELDCLVKGLLYIDSVSFNGQAECYYFANASEPERCQKMPFNLDDPYPLLVVNIGSGVSILAVHSKDNYKRVTGTSLGGGTFLGLCSLLTGCESFEEALEMASKGDSTQADKLVRDIYGGDYERFGLPGWAVASSFGNMIYKEKRESVSKEDLARATLVTITNNIGSVARMCAVNEKINRVVFVGNFLRVNTLSMKLLAYALDYWSKGQLKALFLEHEGYFGAVGALLGLPN
notes: catalytic core domain of human PanK3 (amino acid residues 12–368); made in house; host or cells: E. coli BL21(DE3)
**Q.** Which results are given for B1?
**A.** Km [1]: 75 ± 11 µM; kcat [1]: 0.73 ± 0.02 s⁻¹; kcat/Km [1]: 10700 ± 800 M⁻¹ s⁻¹; Km [2]: 67 ± 10 µM; kcat [2]: 0.73 ± 0.05 s⁻¹; kcat/Km [2]: 12000 ± 1000 M⁻¹ s⁻¹; Km [3]: 69 ± 6 µM; kcat [3]: 0.63 ± 0.02 s⁻¹; kcat/Km [3]: 9300 ± 500 M⁻¹ s⁻¹; Km [4]: 42 ± 4 µM; kcat [4]: 0.399 ± 0.005 s⁻¹; kcat/Km [4]: 10000 ± 1000 M⁻¹ s⁻¹; Km [5]: 65 ± 7 µM; kcat [5]: 0.61 ± 0.02 s⁻¹; kcat/Km [5]: 10200 ± 900 M⁻¹ s⁻¹; Km [6]: 100 ± 7 µM; kcat [6]: 0.64 ± 0.01 s⁻¹; kcat/Km [6]: 6600 ± 400 M⁻¹ s⁻¹; Km [7]: 24 ± 4 µM; kcat [7]: 0.64 s⁻¹; kcat/Km [7]: 30000 M⁻¹ s⁻¹
